Source: patent US20230212304A1 (BIOSION, published 2023)

Biological target: T1, recombinant human CTLA4-his protein (Acro biosystems, Cat#CT4-H5229) (human, UniProt P16410 37-162)
T1 construct: bought recombinant protein; not shown: his tag
T1 sequence (looked up): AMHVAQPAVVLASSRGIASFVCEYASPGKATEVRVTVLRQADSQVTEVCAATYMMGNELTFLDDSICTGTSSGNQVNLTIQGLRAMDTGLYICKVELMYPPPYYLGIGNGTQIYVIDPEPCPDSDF
Assay: BLI, Octet; antibody from cell supernatant on AHC sensor, CTLA4-his as analyte
Procedure: Briefly, AHC biosensors (anti-human IgG Fc capture, from ForteBio) were presoaked with 10 mM glycine (pH 1.5) for 3 seconds, and then dipped in a well with running buffer (0.5% w/v BSA in PBST) for 3 seconds, the soaking and dipping steps were repeated for three times. […] A new baseline was run for 180 seconds in another well with running buffer. […] Finally, sensors were presoaked with 10 mM glycine (pH 1.5) for 3 seconds, and then were dipped in a well with running buffer for 3 seconds, the soaking and dipping steps repeated for three times. The association and dissociation curves were fit to a 1:1 Langmuir binding model using ForteBio Data Analysis 8.1.

B1: huD1D5-V7 (antibody, human IgG4 S228P, kappa, V domains shown)
VH: EVQLVESGGGLVKPGGSLRLSCAASGFTFSDYGMAWVRQAPGKGLEWVAFISNLAYSVYYADTETGRFTISRDDAKNSLYLQMNSLRAEDTAVYYCARSGLPYAMDYWGQGTTVTVSS
VL: DIQMTQSPSSLSASVGDRVTITCRASQDISNYLNWYQQKPGKVPKLLIYYISRLHSGVPSRFSGSGSGTDFTLTISSLQPEDVATYFCQQGRMLPWTFGGGTKVEIKR
notes: humanized IgG4/kappa; tested as 293F cell supernatant on Octet; also called hu CTLA4 D1D5-V7
  Kd: 10.2 nM
  koff: 0.000857 s⁻¹
  kon: 83900 M⁻¹ s⁻¹

B2: huD1D5-V3 (antibody, human IgG4 S228P, kappa, V domains shown)
VH: EVQLVESGGGLVKPGGSLRLSCAASGFTFSDYGMAWVRQAPGKGLEWVAFISNLAYSVYYADTETGRFTISRDDAKNSLYLQMNSLRAEDTAVYYCARSGLPYAMDYWGQGTTVTVSS
VL: DIQMTQSPSSLSASVGDRVTITCRASQDISNYLNWYQQKPGKTVKLLIYYISRLHSGVPSRFSGSGSGTDFTLTISSLQPEDVATYFCQQGRMLPWTFGGGTKVEIKR
notes: humanized IgG4/kappa; tested as 293F cell supernatant on Octet; also called hu CTLA4 D1D5-V3
  Kd: < 0.001 nM
  koff: < 1e-07 s⁻¹
  kon: 115000 M⁻¹ s⁻¹

B3: huD1D5-V6 (antibody, human IgG4 S228P, kappa, V domains shown)
VH: EVQLVESGGGLVKPGGSLRLSCAASGFTFSDYGMAWVRQAPGKGLEWVAFISNLAYSVYYADTETGRFTISRDNAKNSLYLQMNSLRAEDTAVYYCARSGLPYAMDYWGQGTTVTVSS
VL: DIQMTQSPSSLSASVGDRVTITCRASQDISNYLNWYQQKPGKVPKLLIYYISRLHSGVPSRFSGSGSGTDFTLTISSLQPEDVATYFCQQGRMLPWTFGGGTKVEIKR
notes: humanized IgG4/kappa; tested as 293F cell supernatant on Octet; also called hu CTLA4 D1D5-V6
  Kd: 25.8 nM
  koff: 0.00157 s⁻¹
  kon: 60900 M⁻¹ s⁻¹

B4: huD1D5-V8 (antibody, human IgG4 S228P, kappa, V domains shown)
VH: EVQLVESGGGLVKPGGSLRLSCAASGFTFSDYGMAWVRQAPGKGLEWVSFISNLAYSVYYADTETGRFTISRDNAKNSLYLQMNSLRAEDTAVYYCARSGLPYAMDYWGQGTTVTVSS
VL: DIQMTQSPSSLSASVGDRVTITCRASQDISNYLNWYQQKPGKVPKLLIYYISRLHSGVPSRFSGSGSGTDFTLTISSLQPEDVATYFCQQGRMLPWTFGGGTKVEIKR
notes: humanized IgG4/kappa; tested as 293F cell supernatant on Octet; also called hu CTLA4 D1D5-V8
  Kd: 68.1 nM
  koff: 0.00196 s⁻¹
  kon: 28800 M⁻¹ s⁻¹

B5: huD1D5-V1 (antibody, human IgG4 S228P, kappa, V domains shown)
VH: EVQLVESGGGLVKPGGSLRLSCAASGFTFSDYGMAWVRQAPGKGPEWVAFISNLAYSVYYADTETGRFTISRDDAKNSLYLQMNSLRAEDTAVYYCARSGLPYAMDYWGQGTTVTVSS
VL: DIQMTQSPSSLSASVGDRVTITCRASQDISNYLNWYQQKPGKTVKLLIYYISRLHSGVPSRFSGSGSGTDFTLTISSLQPEDVATYFCQQGRMLPWTFGGGTKVEIKR
notes: humanized IgG4/kappa; tested as 293F cell supernatant on Octet; also called huCTLA4 D1D5-V1
  Kd: < 0.001 nM
  koff: < 1e-07 s⁻¹
  kon: 82000 M⁻¹ s⁻¹

B6: huD1D5-V2 (antibody, human IgG4 S228P, kappa, V domains shown)
VH: EVQLVESGGGLVKPGGSLRLSCAASGFTFSDYGMAWVRQAPGKGLEWVAFISNLAYSVYYADTETGRFTISRDNAKNSLYLQMNSLRAEDTAVYYCARSGLPYAMDYWGQGTTVTVSS
VL: DIQMTQSPSSLSASVGDRVTITCRASQDISNYLNWYQQKPGKTVKLLIYYISRLHSGVPSRFSGSGSGTDFTLTISSLQPEDVATYFCQQGRMLPWTFGGGTKVEIKR
notes: humanized IgG4/kappa; tested as 293F cell supernatant on Octet; also called hu CTLA4 D1D5-V2
  Kd: 0.72 nM
  koff: 6.25e-05 s⁻¹
  kon: 86800 M⁻¹ s⁻¹

B7: huD1D5-V5 (antibody, human IgG4 S228P, kappa, V domains shown)
VH: EVQLVESGGGLVKPGGSLRLSCAASGFTFSDYGMAWVRQAPGKGPEWVAFISNLAYSVYYADTETGRFTISRDDAKNSLYLQMNSLRAEDTAVYYCARSGLPYAMDYWGQGTTVTVSS
VL: DIQMTQSPSSLSASVGDRVTITCRASQDISNYLNWYQQKPGKVPKLLIYYISRLHSGVPSRFSGSGSGTDFTLTISSLQPEDVATYFCQQGRMLPWTFGGGTKVEIKR
notes: humanized IgG4/kappa; tested as 293F cell supernatant on Octet; also called hu CTLA4 DID5-V5
  Kd: 1.73 nM
  koff: 0.00018 s⁻¹
  kon: 104000 M⁻¹ s⁻¹

B8: huD1D5-V4 (antibody, human IgG4 S228P, kappa, V domains shown)
VH: EVQLVESGGGLVKPGGSLRLSCAASGFTFSDYGMAWVRQAPGKGLEWVSFISNLAYSVYYADTETGRFTISRDNAKNSLYLQMNSLRAEDTAVYYCARSGLPYAMDYWGQGTTVTVSS
VL: DIQMTQSPSSLSASVGDRVTITCRASQDISNYLNWYQQKPGKTVKLLIYYISRLHSGVPSRFSGSGSGTDFTLTISSLQPEDVATYFCQQGRMLPWTFGGGTKVEIKR
notes: humanized IgG4/kappa; tested as 293F cell supernatant on Octet; also called hu CTLA4 D1D5-V4
  Kd: 4.36 nM
  koff: 0.000408 s⁻¹
  kon: 93500 M⁻¹ s⁻¹

B9: huC1D1-V5 (antibody, human IgG4 S228P, kappa, V domains shown)
VH: EVQLVESGGGLVQPGRSLRLSCTASGFTFSDNWMNWVRQAPGKGLEWVAQIRNKPYNYETYYSDSVKGRFTISRDDSKSIVYLQMNSLKTEDTAVYYCTGGMDYWGQGTTVTVSS
VL: DIQMTQSPSSLSASVGDRVTITCGASEIIYGALNWYQQKPGKSPKLLIYGATNLADGVPSRFSGSGSGTDFTLTISSLQPEDVATYYCQKILSPPPWTFGGGTKVEIKR
notes: humanized IgG4/kappa; tested as 293F cell supernatant on Octet; also called hu CTLA4 C1D1-V5
  Kd: 2.08 nM
  koff: 0.000476 s⁻¹
  kon: 229000 M⁻¹ s⁻¹
